# Assay: soluble on expression in E. coli; label from the status in PepcDB or PDB records
row,Sequence,soluble on expression in E. coli
1,MKAAAREEAKNIKLLETTEEDKQKNFLFLRLWDRNMDIAMGWKGAQAMQFGQPLVFDMAYENYMKRKELQNTVSQLLESEGWNRRNVDPFHIYFCNLKIDGALHRELVKRYQEKWDKLLLTSTEKSHVDLFPKDSIIYLTADSPNVMTTFRHDKVYVIGSFVDKSMQPGTSLAKAKRLNLATECLPLDKYLQWEIGNKNLTLDQMIRILLCLKNNGNWQEALQFVPKRKHTGFLEISQHSQEFINRLKKAKT,not soluble
2,MLKTNSSRDGKIKLTVDQMLGKLARWIRLMGYDVYYPAGNVSDNEIIEVSKNEGRILITKDYELYSRYPLSIYELYSNIDDQLYDFVFHFRKRTEEEFKRCPVCNGKLVKVYASPHVLNHRDLYRCEFCGKLYWKGTHYKKIYRKLKSLEKKSGAGRLEHHHHHH,not soluble
3,MGSDKIHHHHHHMATGTLPDAGQILNSLINSILLVDDDLAVHFANPAAQQLLAQSSRKLFGTPLPELLSYFSLNIGLMQESLQAGQGFTDNEVTLVIDGRSHILSLTAQRLPEGFILLEMAPMDNQRRLSQEQLQHAQQVAARDLVRGLAHEIKNPLGGLRGAAQLLSKALPDPALTEYTKVIIEQADRLRNLVDRLLGPQHPGMHVTESIHKVAERVVKLVSMELPDNVKLIRDYDPSLPELPHDPDQIEQVLLNIVRNALQALGPEGGEIILRTRTAFQLTLHGVRYRLAARIDVEDNGPGIPPHLQDTLFYPMVSGREGGTGLGLSIARSLIDQHSGKIEFTSWPGHTEFSVYLPIRK,not soluble
4,MFTQLALLSVLAVFVAQATMNLPSQEQYNAELKSAGMSQAGIDGLNVLSQKFVSQYPVVQANKEAADKFLAEYTEEAQNYVKSMSPEDQKIYAESLKKYGLA,not soluble
5,MGSDKIHHHHHHLAARNFPPVLPFSPRKIAVLHAKAVGDFIVILPALDAIKRTYPEAELILLAKPWVKEFFSGRPSPVDRVLSLPPLAGVNDPVESKGRVPSTGSGVYPVEVELFCQAMQGEKLDVVIHMQGDGKSVNPFINKFAARVTAGMCNPPAESLDRSIPYVHYQSEVLRNLEVASLIGARTTSTGFEPRIEVTESDEQETESVRQTIKGKPYVVIHPGADDIRRVWPAVRFAEAADCLLEKGYAVVVTGTPKEEERVATVIRAMSRPAIPCTRLGLCGLAALLQHSALVISNDTGPLHLARAVGARTVGIYWAPNILNWGPLSRDRHRLAIGWQLECPQCGIRPVSPWPFQPQTSDCSHPYSFVESVPVAEVLALATELLGLTTEH,not soluble
6,MGSDKIHHHHHHVSQPTSSLVGKSRASIYRDLVLSAQGVRFGKTAGKDVDVIKYLFALLILLAFSAKGYHPKEAHEPLTTLAVDAMAQCGINLSESTRLQLMQGNLAMDEGAGKLPKELMNTSFAKAVFPMTKRIHNWHFYHPDKTADAQRLAGKTDMSMARLWQAAQAGLEQAPAEHKAYYLGAIIHLIQDVTVPAHAVPVYHGPKIIAWQREFAPLVNYLGFGFRGIFVIHDPVDDWPVNSTGAEQPIAAIPCPELHAASSNLSANFDALRTRVARQTLTALDNPIPGCAAPWRLFWREDLGHRYFAGYTQGIKPFGRANSLSGEGISIDGRPCEPDYQGFVETRHRAAIEATMAALQLSQLGVVSPVPTEAQ,not soluble
7,MITILGPTACGKTRLAVSLAYRLETEIISADSRQIYRGMDIGTGKDLADYQVGGTTIPCHLIDIRPAGDKYNLFAYQHDFHQAYASILARGMDPILCGGTGMYIEAVLKGYHLPDVPPNPTLRDRLQGKSLTELTLILAAYGPLHNKTDVDSAQRAIRAIEIAEYIKNNPVESTEFPPIDSLIIGLDLDRDTRRKRITDRLHARMHEGMIEEVKGLLDSGIPAEDLIYYGLEYKFVTLYLTGQTDYESMFTGLETAIHQFAKRQMTWFRGMERRGFLIHWIDALLPADEQCEAVMKLYGANGLEHHHHHH,soluble
8,MSNTQHKLDKTRPPRVQITYDVETGDAETAKELPLVIGVLGEYSSSEKPLRERKFISIDKDNFDEVMASMSPTAHFMVDSVIPGNEGKLDVELRFSCKDDFSPDNVIQQVECLRKLSELRLHLCDLRNRAASNEKLKEKLQELLVTTNGNPENDESKE,not soluble
9,MSSEEQDVKIVTSDDVEFIVSPKIANQSKLLADFVVLNQREPIPLKNVTSEIFKKVIEWCEYHAEDIPKPPDNVEEKRTDDIGEWDVEFLKVDKGTLFELVLAATYLDIKGLFNVTCKSIANSIKGKSPEEIRAVFNLGNETNME,not soluble
10,SESKKRELFSQIKDLKGTSGNVALLELGCGTGANFQFYPQGCKVTCVDPNPNFEKFLTKSMAENRHLQYERFIVAYGENMKQLADSSMDVVVCTLVLCSVQSPRKVLQEVQRVLRPGGLLFFWEHVAEPQGSRAFLWQRVLEPTWKHIGDGCHLTRETWKDIERAQFSEVQLEWQPPPFRWLPVGPHIMGKAVK,soluble
11,MAHHHHHHMTDVAEGHQSYANAFISEGDRTSAVRYLDLFLRLYEEYCDVAEVEANSRVLQAATVMQSNSHAPDLLSYVVSAAALGIGGTRALAPALASLPLKVLNLSECYLGDAGLRVLAETLSASSHSTGGLRVLELRGISASDGSSVALLVTALRSLQLLDVSSNRFGTRPPGFALLCAAMGYHPALREVHIADNMVSGCCESCVGAIAEWLVKASRACMLQHVDLRFNTLGLYRRGLYNTVVDGKEVQCTLYGFYPLVDALLLNNSIEVLEVGNNGFPPGVLDAIEAKLAVNKRTKKALQEYYTNHIDR,not soluble
12,MLLLQFSNMVEPTGPAIVEDERTKALNSYRRKLAECRDIEQKLKDLRKKESEMTKQFDKSENDIKSLQSVGQIVGEVLKQLSEEKFIVKATNGPRYVVGCRRSINKEELKQGTRVSLDMTTLTIMRQLPREVDPLVYKMSHEDPGNISYSDVGGLAEQIRELREVVELPLINPELFKRVGITPPKGCLLFGPPGTGKTLLARAVASQLDCNFLKVVSSAIVDKYIGESARMIREMFNYARDHQPCIVFMDEIDAIGGRRFSEGTSADREIQRTLMELLNQLDGFDSLGKVKVIMATNRPDTLDPALLRPGRLDRKIEIGLPNEQSRLEILKIHSNKITKHGEIDFEAVVKLSDGFSAADLRNVCTEAGMFAIRAEREFVIDEDFMKAVRKVGDAKRLETKLDYKPV,not soluble
13,MSETVSVESSVDSNINQDVNIRATYLGAHELKLAASLLYQAYHDDPVFLDIFKSDKEDYEQRLRGAIREELNAFWQAKQPMIGLYLGEAMVGVACINSPDETLASDRFWHWRLKMLLNAGYFSTKQMMQKEHTVLAAVPLKIFHFLSFIAVHPLHQQHGFGHYLMAAVNTVLDEHPDSEGVAVYATSGKFKEFFKQVDYHTVKEVTVGNVCGSVMVHYRDKEE,soluble
14,MKLIIAVVQDKDSNRLSEALVKANYRATKLASTGGFLKAGNTTFLIGTEDEHVEEVMSIIKDNCKSRDQLVAPISPMGGNADSYVPYPVEVQVGGATVFVLPVEQFEQY,not soluble
15,GSHMGQNDLVKTLRMNYLFDFYQSLLTNKQRNYLELFYLEDYSLSEIADTFNVSRQAVYDNIRRTGDLVEDYEKKLELYQKFEQRREIYDEMKQHLSNPEQIQRYIQQLEDLE,soluble
16,MGSSHHHHHHGKTIFVIVPTNEEQVAFLEALAKQDELNFDWQNPPTEPGQPVVILIPSDMVEWFLEMLKAKGIPFTVYVEEGGSENLYFQGGGGGGYCAPTGRGADPKFYTPDAARKRDEQDKSYPVPKKLLKVRFLSDVGNTMPIAFVPLQREVEVLVGEPALAFYSAYNRSNRTLLGVSSYTIAPPEVTNYLNKIQCFCFEEQRFKPHELVEMPVFFYIDRDFLNDSMVNWLDEVIVNYTFFNLEKTKDYIFRPNAR,not soluble
17,MGSDKIHHHHHHMPKITKIEVQKKNKERFNLFLDEQFEMGIDIDTLVKFNLKKGQQLEAADMAEIQKYDHYRIGLNKAIQYLSYKKRTEKEVIQYLQKEEISEQAISEVIEYCYREKLIDHQDYAESLKNTMIRTTDKGPKIYQQKLYQLGIEPNIIEIFTELYREQQELDDIIQIAEKISKTKKGPQNKVKEKVMQSLIQKGFEMETIHAVLNEMDFTQDEAVLDDLLQRDLEKIYNKNRKKYTQQKLISKTIEGLMRKGYKYDKIKAKLEESGIADGTEEIE,not soluble
18,MSTVPISGRSQIMLVQDSEILSSSALQYKQFLSKVKISKNATSTAQVRRVGQKVAAATMLYLKQNGLGDMASQMKWEFNVVEDKAVNAFCMPGGKIVVYTGLLKLVGSDAELATVISHEVSHAVARHSNERISQEYLRQMGGNILGAAVSNKSAALQTVIGQAYGIGSQVLITLPYNRKQEYEADKIGLVFMAMAGYNPNAAITFWQKMAAQGNGRVEFLSTHPSDANRIAAIRQYMPEAMKHYKSKLEHHHHHH,soluble
19,MGSDKIHHHHHHLGILDAPAVQPSKVGLEALYAKTSASLGLFHTSLAGRHFAPCKILVVGDSISEGAGATLNIRNRWQDRLKENLRSRFPTDGSPGTTLHYVPAMNVVNMPGDMAVRSAGVTTGTSFGFGARHAQLTAAGHTVTFTVTGTSAKVVYPKSSGGGSFTWQVDGGTVSSAVSQSAGSLTDGFTTDIPLGASGSHTVVIAWVSGGSVFIDGLLVYNGDETKGIHVIDGAHSGWGAQNFQLNGIQFYQGSLTTMLQPSLVIIALGINDFAFGSLSIANYKIHMQSNIDRYRGAIPTKPPSILLVAMHRRSPVSAVATWAEYVQAMKELAQANDGVAFLDLSARLPQVSGDTRGLYADEVHPANLGHSAIADNVTSFIVPR,not soluble
20,MGSDKIHHHHHHVSNGAATRVRRSREKILGAAESVFLQHGFLGTNMDVIADTAGVSKQTVYAHFKSKEALFIDVVEAMTGGAAEEIGEDIEDVFGDRKAEDYLLEVAIDQLTVVLTPRLMQLRRMVIGEVERFPELGRSLYVNGPIRSITRLTRACAHYTRIGELITPDPQAAATQFNWIVMGAPTNAAMLLGDAGIPTSAQLQAHATEAVRIFLCAYGAKQMHPR,not soluble
21,MGSDKIHHHHHHMNADEFVEAFNNAKDLTELELLAELGKSISDDLEGHEKGKVLGTLGNIYYALHRLKEAEEAYLEALNVYLKLSEEDEGFLPYVVGCLYNLGNLYQVSRKFAEAEKAYTDALKVLGDVRNDQRLAILTALGTMYAKLDMKEHAERCLVEAFEMAKVKGDARLLGTLLNNLAVVYQRGGRKREAAMLLKMALDALERVGEDLGIAAVLQNLLPYLDEDELRRVMERLESFGELPIDLKAKIAYFKARRAEEKGEDSAKHYMEAACLGFMAYRNFGFQSINFMHCLDKVIESDSELREDAVVLKKVILKYYYGSQKVEIDFDSRVGRMIKAVLEGDDIYEDGILEDTVRLIAEDLLKAGTKV,not soluble
22,MSTAEQRMDTSEVELPNDNVNEQGNKTPRADQPESSASGARNHGEDEEVTEQVELAAMETEASDSIVDNVPKTPRRAGRPKKLPSTSTAAAESAVTPGKRGRKRKGSESVNTTINSTMNSTLNEPKTPGRKQAKLVAPLLTYDLFAPSIIGDRVLSCGEGEALGHPGRTTTKKPRKVDIFEEEGLKPLQAVAGGVHSAVLTSEGEVYMCGINEKGTVPAEGVEKEGSTDEFAKVKFEEDIEKEGKIVMLAAGASFTAALTDQGSVIAWGNLRNSNGNVDVHPLLHKMQEAPVVIVHQAKRKIVKIAAGENHLVMLDEKGCLLTFGDGEMGQLGRSSRTKTIRSKYMCDESGDHLLVPLRFKHKGKFFDVVAKNVFASGFWTIVHGEDGKYYAFGLNNYAQLGIKVDEADVGQDGQDNRELRVFLPAEAPAFGAERTFVNIEGVQHVVILGSDGKVFAMGKNTDNALGLGNWTGKDDQQHWLYDTIQEIEFDSKIVGVSAKLATSIAWSEDGTAYAWGFDTTGQLGLGLKDEDEKMVSKPEEISSAHLDGYSIIGASISDQHTLIIAKKN,soluble
23,MLIANEVYHALNLEEVWFLPNQIPPHKQGRDITSVESRLQMLELATEAEEHFSICLEELSRKGPSYTYDTMLQLTKKYPDVQFHFIIGGDMVEYLPKWYNIEALLDLVTFVGVARPGYKLRTPYPITTVEIPEFAVSSSLLRERYKEKKTCKYLLPEKVQVYIERNGLYES,not soluble
